What all share (assay): cryo-EM structure
For test [1], the target named is sodium selective channelrhodopsin HcCCR from H. catenoides (Hyphochytrium catenoides).
The target in test [2] is H. catenoides kalium channelrhodopsin (HcKCR1), wildtype (Hyphochytrium catenoides).
Test [3] concerns the target higher potassium selective channelrhodopsin (B1ChR2) from Bilabrum sp (Bilabrum sp).

For the substance “sodium selective channelrhodopsin HcCCR from H. catenoides (natural protein)”, in test [1], the stoichiometry N was found to be 3.
In test [2], “H. catenoides kalium channelrhodopsin (HcKCR1), wildtype (natural protein)” gave a stoichiometry N of 3.
Substance “higher potassium selective channelrhodopsin (B1ChR2) from Bilabrum sp (natural protein)” showed a stoichiometry N in test [3] of 3.

The stoichiometry N is a count of units in the complex or per binding partner.

The record behind these values is publication doi:10.1101/2023.07.22.550149.
